Consider three molecules from patent publication US20210395393A1 (published 2021).

For assay [1], the target named is T1, recombinant human tPA (rh-tPA: abcam ab92637) (UniProt P00750 36-562). In words: ELISA; Plate 1, PBS, 4°C. In general terms: In an ELISA, binding on a coated surface is turned into a signal by an enzyme label.
The target in assay [2] is T1, recombinant human tPA (rh-tPA: abcam …). In words: ELISA.
The target is the same in assay [3]. In words: ELISA; Plate 2, PBS, 4°C.
Assay [4] has the same target. The assay can be described thus: ELISA; Plate 1, human serum, 37°C.
For assay [5] the target is unchanged. The assay can be described thus: ELISA; Plate 2, cynomolgus serum, 37°C.
The target is the same in assay [6]. The assay can be described thus: ELISA. The source holds these as a separate data set.
Assay [7] has the same target. In words: ELISA; Plate 2, mouse serum, 37°C.
Assay [8] shares this target. In words: ELISA; Plate 1, PBS, 37°C.
The target is the same in assay [9]. In words: ELISA; Plate 2, mouse serum, 37°C. The source holds these as a separate data set.
Assay [10] shares this target. The assay can be described thus: ELISA; Plate 2, PBS, 4°C. The source holds these as a separate data set.
Assay [11] has the same target. In words: ELISA; Plate 2, cynomolgus serum, 37°C. This is another data set of the same source.
The target is the same in assay [12]. The assay can be described thus: ELISA; Plate 1, PBS, 4°C. This is another data set of the same source.
The target is the same in assay [13]. In words: ELISA; Plate 1, human serum, 37°C. The source holds these as a separate data set.
For assay [14] the target is unchanged. The assay can be described thus: ELISA; Plate 1, human serum, 37°C. The source holds these as a separate data set.
The target is the same in assay [15]. The assay can be described thus: ELISA; Plate 2, PBS, 4°C. The source holds these as a separate data set.
The target is the same in assay [16]. The assay can be described thus: ELISA; Plate 1, PBS, 37°C. The source holds these as a separate data set.
The target is the same in assay [17]. The assay can be described thus: ELISA; Plate 2, mouse serum, 37°C. This is another data set of the same source.
Assay [18] has the same target. The assay can be described thus: ELISA; purified Fab.
For assay [19] the target is unchanged. The assay can be described thus: ELISA; Plate 1, PBS, 4°C. This is another data set of the same source.

By EC50 is commonly meant the concentration needed to bring the measured effect to its halfway point. A word on the IC50: it is the concentration that gives 50% inhibition.

T1 sequence (P00750 36-562): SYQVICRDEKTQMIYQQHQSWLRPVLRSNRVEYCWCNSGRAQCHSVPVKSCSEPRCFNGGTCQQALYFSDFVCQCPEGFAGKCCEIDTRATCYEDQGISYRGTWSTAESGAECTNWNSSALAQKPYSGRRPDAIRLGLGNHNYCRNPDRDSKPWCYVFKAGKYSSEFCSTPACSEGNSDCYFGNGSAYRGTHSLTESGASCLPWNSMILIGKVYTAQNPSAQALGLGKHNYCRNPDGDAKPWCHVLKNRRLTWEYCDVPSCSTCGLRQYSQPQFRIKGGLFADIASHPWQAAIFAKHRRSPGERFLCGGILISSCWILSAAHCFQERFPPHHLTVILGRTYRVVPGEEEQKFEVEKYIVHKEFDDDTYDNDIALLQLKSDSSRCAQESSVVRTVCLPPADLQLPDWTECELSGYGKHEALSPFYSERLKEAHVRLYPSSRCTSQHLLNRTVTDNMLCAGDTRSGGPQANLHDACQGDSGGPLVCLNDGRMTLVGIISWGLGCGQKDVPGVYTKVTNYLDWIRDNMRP

B1: TPAi-1 RHP/RKA (antibody, V domains shown)
VH: QVQLVQSGAEVKKPGASVKVSCKASGNTSYWINWVRQATGQGLEWMGRIDPGGGSTGYAQKFQGRVTMTRDTSISTAYMELSSLRSEDTAVYYCASYYYAMAYWGQGTLVTVSS
VL: DVVMTQSPLSLPVTPGEPASISCRSSQSIVHSNGNTYLDWYLQKPGQSPQLLIYKVSNRASGVPDRFSGSGSGTDFTLKISRVEAEDVGVYYCFQGSHVPWTFGGGTKVEIK
On to B1, for which the EC50 in assay [1] was 229 pM; in assay [3], 304 pM; in [4] it was 404 pM; in [5], 514 pM; in assay [7], 403 pM. Besides, the IC50 in assay [2] is 365 pM; in [6], 316 pM.

B2: TPAi-1 RHE/RKA (antibody, V domains shown)
VH: QVQLVQSGAEVKKPGASVKVSCKASGNTSYWINWVRQATGQGLEWMGRIDPGGGSTGYAQKFQGRVTMTRNTSISTAYMELSSLRSEDTAVYYCASYYYAMAYWGQGTLVTVSS
VL: DVVMTQSPLSLPVTPGEPASISCRSSQSIVHSNGNTYLDWYLQKPGQSPQLLIYKVSNRASGVPDRFSGSGSGTDFTLKISRVEAEDVGVYYCFQGSHVPWTFGGGTKVEIK
Turning to B2, the EC50 stood at 972 pM in assay [8]; 694 pM in assay [9]; 510 pM in assay [10]; 717 pM in assay [11]; 596 pM in assay [12]; 647 pM in [13].

B3: TPAi-1 RHP/RKA Fab (Fab, V domains shown)
VH: QVQLVQSGAEVKKPGASVKVSCKASGNTSYWINWVRQATGQGLEWMGRIDPGGGSTGYAQKFQGRVTMTRDTSISTAYMELSSLRSEDTAVYYCASYYYAMAYWGQGTLVTVSS
VL: DVVMTQSPLSLPVTPGEPASISCRSSQSIVHSNGNTYLDWYLQKPGQSPQLLIYKVSNRASGVPDRFSGSGSGTDFTLKISRVEAEDVGVYYCFQGSHVPWTFGGGTKVEIK
With B3, the EC50 was 978 pM in assay [14]; 1750 pM in assay [15]; 2160 pM in assay [16]; 966 pM in assay [17]; 1450 pM in assay [19]. In assay [18], the IC50 stood at 1620 pM.
